Data from article PMC5908803, “Cryo-EM structure of the RC-LH core complex from an early branching photosynthetic prokaryote” (Nature Communications, 2018).

Target: the molecule itself
Experiment: cryo-EM structure; single-particle cryo-EM of the rcRC-LH complex purified whole from native membranes, 3 mg/mL in 0.02% DDM, 150 mM NaCl, 50 mM Tris-HCl pH 8.0; 4.1 Å (subunit X helix seen after low-pass filter to 6 Å)

B1: LHαβ heterodimer of Roseiflexus castenholzii (complex)
chain 1: MKDRPFEFRTSVVVSTLLGLVMALLIHFVVLSSGAFNWLRAP
chain 2: MTDKPQNDLVPDQWKPLFNNAQWLVHDIVVKTIYGGLIIAVIAHVLCWAWTPWIR
notes: α subunit of the LH antenna, Roseiflexus castenholzii, encoded by puf A; β subunit of the LH antenna, Roseiflexus castenholzii, encoded by puf B; Each heterodimer holds two B880, one B800 and one keto-γ-carotene; 15 of them form the open elliptical LH ring; also called LHαβ subunit
For B1, the “stoichiometry N” value was 15.
